Test results: US9150647 (KANCERA, dated 2015)

What was measured:
[1] = target: human Ror1 (receptor tyrosine kinase ROR1, 937 amino acids, 105 kDa) (human) (UniProt Q01973); assay: flow cytometry, surface staining of CD19+ cells of patient CLL-18
[2] = target: human Ror1 (receptor tyrosine kinase ROR1, 937 amino acids, 105 kDa) (human) (UniProt Q01973); assay: flow cytometry, surface staining of CD19+ cells of patient CLL-6
[3] = target: human Ror1 (receptor tyrosine kinase ROR1, 937 amino acids, 105 kDa) (human) (UniProt Q01973); assay: flow cytometry, surface staining of CD19+ cells of patient CLL-11
[4] = target: human Ror1 (receptor tyrosine kinase ROR1, 937 amino acids, 105 kDa) (human) (UniProt Q01973); assay: flow cytometry, surface staining of CD19+ cells of patient CLL-12
[5] = target: human Ror1 (receptor tyrosine kinase ROR1, 937 amino acids, 105 kDa) (human) (UniProt Q01973); assay: flow cytometry, surface staining of CD19+ cells of patient CLL-7
[6] = target: human Ror1 (receptor tyrosine kinase ROR1, 937 amino acids, 105 kDa) (human) (UniProt Q01973); assay: flow cytometry, surface staining of CD19+ cells of patient CLL-4
[7] = target: human Ror1 (receptor tyrosine kinase ROR1, 937 amino acids, 105 kDa) (human) (UniProt Q01973); assay: flow cytometry, surface staining of CD19+ cells of patient CLL-1
[8] = target: human Ror1 (receptor tyrosine kinase ROR1, 937 amino acids, 105 kDa) (human) (UniProt Q01973); assay: flow cytometry, surface staining of cells of patient CLL-2
[9] = target: human Ror1 (receptor tyrosine kinase ROR1, 937 amino acids, 105 kDa) (human) (UniProt Q01973); assay: flow cytometry, surface staining of CD19+ cells of patient CLL-5
[10] = target: human Ror1 (receptor tyrosine kinase ROR1, 937 amino acids, 105 kDa) (human) (UniProt Q01973); assay: flow cytometry, surface staining of cells of patient CLL-6
[11] = target: human Ror1 (receptor tyrosine kinase ROR1, 937 amino acids, 105 kDa) (human) (UniProt Q01973); assay: flow cytometry, surface staining of cells of patient CLL-7
[12] = target: human Ror1 (receptor tyrosine kinase ROR1, 937 amino acids, 105 kDa) (human) (UniProt Q01973); assay: flow cytometry, surface staining of CD19+ cells of patient CLL-15
[13] = target: human Ror1 (receptor tyrosine kinase ROR1, 937 amino acids, 105 kDa) (human) (UniProt Q01973); assay: flow cytometry, surface staining of CD19+ cells of patient CLL-10
[14] = target: human Ror1 (receptor tyrosine kinase ROR1, 937 amino acids, 105 kDa) (human) (UniProt Q01973); assay: flow cytometry, surface staining of cells of patient CLL-3
[15] = target: human Ror1 (receptor tyrosine kinase ROR1, 937 amino acids, 105 kDa) (human) (UniProt Q01973); assay: flow cytometry, surface staining of CD19+ cells of patient CLL-17
[16] = target: human Ror1 (receptor tyrosine kinase ROR1, 937 amino acids, 105 kDa) (human) (UniProt Q01973); assay: flow cytometry, surface staining of cells of patient CLL-11
[17] = target: human Ror1 (receptor tyrosine kinase ROR1, 937 amino acids, 105 kDa) (human) (UniProt Q01973); assay: flow cytometry, surface staining of CD19+ cells of patient CLL-16
[18] = target: human Ror1 (receptor tyrosine kinase ROR1, 937 amino acids, 105 kDa) (human) (UniProt Q01973); assay: flow cytometry, surface staining of CD19+ cells of patient CLL-9
[19] = target: human Ror1 (receptor tyrosine kinase ROR1, 937 amino acids, 105 kDa) (human) (UniProt Q01973); assay: flow cytometry, surface staining of cells of patient CLL-5
[20] = target: human Ror1 (receptor tyrosine kinase ROR1, 937 amino acids, 105 kDa) (human) (UniProt Q01973); assay: flow cytometry, surface staining of CD19+ cells of patient CLL-3
[21] = target: human Ror1 (receptor tyrosine kinase ROR1, 937 amino acids, 105 kDa) (human) (UniProt Q01973); assay: flow cytometry, surface staining of cells of patient CLL-14
[22] = target: human Ror1 (receptor tyrosine kinase ROR1, 937 amino acids, 105 kDa) (human) (UniProt Q01973); assay: flow cytometry, surface staining of cells of patient CLL-12
[23] = target: human Ror1 (receptor tyrosine kinase ROR1, 937 amino acids, 105 kDa) (human) (UniProt Q01973); assay: flow cytometry, surface staining of CD19+ cells of patient CLL-2
[24] = target: human Ror1 (receptor tyrosine kinase ROR1, 937 amino acids, 105 kDa) (human) (UniProt Q01973); assay: flow cytometry, surface staining of cells of patient CLL-18
[25] = target: human Ror1 (receptor tyrosine kinase ROR1, 937 amino acids, 105 kDa) (human) (UniProt Q01973); assay: flow cytometry, surface staining of cells of patient CLL-1
[26] = target: human Ror1 (receptor tyrosine kinase ROR1, 937 amino acids, 105 kDa) (human) (UniProt Q01973); assay: flow cytometry, surface staining of CD19+ cells of patient CLL-13
[27] = target: human Ror1 (receptor tyrosine kinase ROR1, 937 amino acids, 105 kDa) (human) (UniProt Q01973); assay: flow cytometry, surface staining of cells of patient CLL-8
[28] = target: human Ror1 (receptor tyrosine kinase ROR1, 937 amino acids, 105 kDa) (human) (UniProt Q01973); assay: flow cytometry, surface staining of cells of patient CLL-15
[29] = target: human Ror1 (receptor tyrosine kinase ROR1, 937 amino acids, 105 kDa) (human) (UniProt Q01973); assay: flow cytometry, surface staining of cells of patient CLL-17
[30] = target: human Ror1 (receptor tyrosine kinase ROR1, 937 amino acids, 105 kDa) (human) (UniProt Q01973); assay: flow cytometry, surface staining of CD19+ cells of patient CLL-8
[31] = target: human Ror1 (receptor tyrosine kinase ROR1, 937 amino acids, 105 kDa) (human) (UniProt Q01973); assay: flow cytometry, surface staining of cells of patient CLL-13
[32] = target: human Ror1 (receptor tyrosine kinase ROR1, 937 amino acids, 105 kDa) (human) (UniProt Q01973); assay: flow cytometry, surface staining of cells of patient CLL-10
[33] = target: human Ror1 (receptor tyrosine kinase ROR1, 937 amino acids, 105 kDa) (human) (UniProt Q01973); assay: flow cytometry, surface staining of cells of patient CLL-16
[34] = target: human Ror1 (receptor tyrosine kinase ROR1, 937 amino acids, 105 kDa) (human) (UniProt Q01973); assay: flow cytometry, surface staining of CD19+ cells of patient CLL-14
[35] = target: human Ror1 (receptor tyrosine kinase ROR1, 937 amino acids, 105 kDa) (human) (UniProt Q01973); assay: flow cytometry, surface staining of cells of patient CLL-4
[36] = target: human Ror1 (receptor tyrosine kinase ROR1, 937 amino acids, 105 kDa) (human) (UniProt Q01973); assay: flow cytometry, surface staining of cells of patient CLL-9
[37] = target: T1, human Ror1 (receptor tyrosine kinase ROR1, 937 amino acids, 105 kDa) (human, UniProt Q01973 30-937); assay: flow cytometry, surface staining of CLL cells
T1 construct: whole, on cells; Endogenous Ror1 of primary CLL cells; the same entry is used for surface staining and for the 105 kDa band in Western blots of cell lysates; also called Ror1 protein
T1 sequence (Q01973 30-937): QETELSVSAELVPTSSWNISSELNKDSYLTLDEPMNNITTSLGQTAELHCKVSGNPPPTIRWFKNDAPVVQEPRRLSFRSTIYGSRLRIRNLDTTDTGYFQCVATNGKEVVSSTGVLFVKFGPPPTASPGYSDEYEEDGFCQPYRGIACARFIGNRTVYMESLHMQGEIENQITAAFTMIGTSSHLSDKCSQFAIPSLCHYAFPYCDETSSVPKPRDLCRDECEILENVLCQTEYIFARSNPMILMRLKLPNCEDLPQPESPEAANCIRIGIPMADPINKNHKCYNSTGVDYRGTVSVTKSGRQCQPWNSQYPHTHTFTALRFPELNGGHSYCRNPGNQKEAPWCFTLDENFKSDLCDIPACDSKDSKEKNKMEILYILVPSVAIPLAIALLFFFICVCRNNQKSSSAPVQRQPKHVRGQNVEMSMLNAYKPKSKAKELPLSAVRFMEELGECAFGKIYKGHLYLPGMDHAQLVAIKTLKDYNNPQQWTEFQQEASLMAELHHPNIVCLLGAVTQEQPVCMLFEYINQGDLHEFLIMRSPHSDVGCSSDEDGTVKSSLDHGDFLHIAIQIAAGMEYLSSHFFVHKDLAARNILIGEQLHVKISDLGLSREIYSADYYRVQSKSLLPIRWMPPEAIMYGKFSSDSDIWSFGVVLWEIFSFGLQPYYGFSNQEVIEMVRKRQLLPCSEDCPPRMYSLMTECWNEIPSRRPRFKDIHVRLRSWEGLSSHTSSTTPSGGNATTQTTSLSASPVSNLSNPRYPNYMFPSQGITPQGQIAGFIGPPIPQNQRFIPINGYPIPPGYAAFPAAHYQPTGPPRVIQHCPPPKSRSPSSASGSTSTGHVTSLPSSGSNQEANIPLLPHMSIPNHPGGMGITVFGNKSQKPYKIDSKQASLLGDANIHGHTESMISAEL

Chain of human Ror1 (receptor tyrosine kinase ROR1, 937 amino acids, 105 kDa) (human) (Q01973 30-937): as above

Q: Which results are given for “goat anti-Ror1 polyclonal antibody (N-Ror1com) (R&D systems)”?
A: Freq. (%) of Ror1+ CLL cells (CD19+) [1]: 93%; Freq. (%) of Ror1+ CLL cells (CD19+) [2]: 91%; Freq. (%) of Ror1+ CLL cells (CD19+) [3]: 65%; Freq. (%) of Ror1+ CLL cells (CD19+) [4]: 81%; Freq. (%) of Ror1+ CLL cells (CD19+) [5]: 37%; Freq. (%) of Ror1+ CLL cells (CD19+) [6]: 86%; Freq. (%) of Ror1+ CLL cells (CD19+) [7]: 80%; Ror1 MFI [8]: 25; Freq. (%) of Ror1+ CLL cells (CD19+) [9]: 80%; Ror1 MFI [10]: 35; Ror1 MFI [11]: 14; Freq. (%) of Ror1+ CLL cells (CD19+) [12]: 61%; Freq. (%) of Ror1+ CLL cells (CD19+) [13]: 63%; Ror1 MFI [14]: 10; Freq. (%) of Ror1+ CLL cells (CD19+) [15]: 79%; Ror1 MFI [16]: 11; Freq. (%) of Ror1+ CLL cells (CD19+) [17]: 36%; Freq. (%) of Ror1+ CLL cells (CD19+) [18]: 69%; Ror1 MFI [19]: 26; Freq. (%) of Ror1+ CLL cells (CD19+) [20]: 36%; Ror1 MFI [21]: 45; Ror1 MFI [22]: 15; Freq. (%) of Ror1+ CLL cells (CD19+) [23]: 91%; Ror1 MFI [24]: 33; Ror1 MFI [25]: 13; Freq. (%) of Ror1+ CLL cells (CD19+) [26]: 84%; Ror1 MFI [27]: 20; Ror1 MFI [28]: 19; Ror1 MFI [29]: 20; Freq. (%) of Ror1+ CLL cells (CD19+) [30]: 50%; Ror1 MFI [31]: 14; Ror1 MFI [32]: 10; Ror1 MFI [33]: 18; Freq. (%) of Ror1+ CLL cells (CD19+) [34]: 92%; Ror1 MFI [35]: 20; Ror1 MFI [36]: 20

B1: Anti-Ror1 CRD16 (clone 1C11) antibody (antibody, V domains shown)
VH: EVKLQESGAELARPGASVKMSCKASGYTFTSYTMHWVKQRPGQGLEWIGYINPSSGYTEYNQKFKDKTTLTADKSSSTAYMQLSSLTSGDSAVYYCARRVLWLRRGDYWGQGTILTVSA
VL: EVLITQTPSSLSASLGERVSLTCRASQDIGSSLNWLQQEPDGTIKRLIYATSSLDSGVPKRFSGSRSGSDYSLTISSLESEDFVDYYCLQYASSPYTFGGGTKLELK
notes: Mouse monoclonal antibody; also called Ror CRD (IgM)
Q: Does B1 bind [37]?
A: Result: binds

B2: Anti-Ror1 Ig24 (clone 2A4) antibody (antibody, IgM, V domains shown)
VH: EVKLQQSGPELVKPGASVKISCKTSGYTFTEYTMHWVKQSHGKSLEWIGGINPNNGGTSYNQKFKGKATLTVDKSSSTAYMELRSLTSEDSAVYYCALQGFAYWGQGTPLTVSS
VL: EIEITQTPALMSASPGEKVTMTCSASSSVSYMYWYQQKPRSSPKPWIYLTSNLASGVPARFSGSGSGTSYSLTISSMEAEDAATYYCQQWSSNPYTFGGGTRLELK
notes: Mouse monoclonal antibody; also called Ror Ig24 (IgM)
Q: Does B2 bind [37]?
A: Result: binds
